Reference: the supplement of paper PMC9170038

Tested on: MS2 coat protein
Assay: apparent KD of MS2 coat protein; designed switch direction (-1 OFF switch, 1 ON switch): 1; higher = weaker reporter binding
Method in brief: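 Designed RNA switches were transcribed on Illumina chips by stalled E. coli RNA polymerase and titrated with SNAP-549-labelled MS2 coat protein from 0.7 or 1.5 nM, doubling to 3 µM. Step length ran from 0.8–1.5 h at the lowest concentration to 10–20 min at the highest. The apparent KD is the median over clusters for each design, from curve-fitted normalised cluster fluorescence.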

[1] = input ligand: microRNA oligo, concentration not stated
[2] = Eterna round: R95, input ligand: FMN 200 uM
[3] = Eterna round: R95, input ligand: microRNA oligo, concentration not stated
[4] = Eterna round: R95, input ligand: none

| Sequence | apparent KD of MS2 coat protein (input ligand: FMN 200 uM) [nM] | apparent KD of MS2 coat protein [1] [nM] | apparent KD of MS2 coat protein (input ligand: none) [nM] | apparent KD of MS2 coat protein [2] [nM] | apparent KD of MS2 coat protein [3] [nM] | apparent KD of MS2 coat protein [4] [nM] |
| --- | --- | --- | --- | --- | --- | --- |
| GCUCGACGUAUUGUCUACAUGAGGAUCACCCAUGUAGGUGCGGAGGAUAUUUACGUGUCUCAUGUAGAGAAGGCCGUGUCGAGC [SameState NG3 #96] (Eterna round: R96, puzzle: Same State NG 3) | 37.1 | 216 | 329 |  |  |  |
| AUAUGAGAAGCAGGAUAUGUGGAGAAGAAACAAACAGAAGGGCUUAUGGGACAACAUGAGGAUCACCCAUGUUCUCUGUGAUGA [ssng1 a] (Eterna round: R96, puzzle: Same State NG 1) | 47.9 | 137 | 240 |  |  |  |
| CGUAGGUAGCUGGAGGAUAUUCGAGUGGUAACAUGAGGAUCACCCAUGUGUUGAGAGGUACAUGAGGAGAAGGCUAGCUGCCUGC (puzzle: Same State 2) |  |  |  | 17.6 | 58.2 | 75.1 |
| AGGUAACAUGAGGAUCACCCAUGUACCAAUAAUGCAGGAUAUCGACACGAAAAUACGUGUCGAGAAGGGCAUGAAA [SS1 MT 22] (Eterna round: R96, puzzle: Same State 1) | 10.3 | 9.09 | 12.5 |  |  |  |
| AGAAACAAAGGCUGAAAUAAUACAUGAGGAUCACCCAUGUCACAGGAUAUCCAGAUAAUAUUCGAGGAGAAGGGUGCAGCCAAC [Esanusdiat] (Eterna round: R96, puzzle: Same State NG 3) | 19.1 | 59.6 | 79.7 |  |  |  |
| GGGCCAGCUUUUGCUGGGCCAAAGCUUGCACAUGAGGAUCACCCAUGUCGUGUACACGCUUCCUGCCCGUCUUGUUU [Photon Torp-20] (puzzle: Sensor for hsa-mir-208a) |  |  |  | 26.5 | 16.6 | 29.4 |
| GUAGCAUACCGAGGAUAUUCAUAUAUACAUGAGGAUCACCCAUGUUAAAAUAGGCGAAAGCCUUGGGAGAAGGCGGAAUGCUAC [Xeonanis - 20 Mod67] (Eterna round: R96, puzzle: Same State NG 2) | 9.45 | 11.4 | 15 |  |  |  |
| UUCGAGUAGCAAGGAUAUCUUAUUUAGAUUUUAAGAGAAGGUGCUUCACAGCUACAUGAGGAUCACCCAUGUCUUUCUUCUUAU [JR_SSNG1_Sub065] (Eterna round: R96, puzzle: Same State NG 1) |  | 27.3 |  |  |  |  |
| UUAAUGAUGAAAGGAUAUACAUGAGGAAUUCUCGUAGAAGGUUCAUGACAUGAGGAUCACCCAUGUAUCGCUCGAAAGAGCGUA [Mat - Same State NG 1 - JL mod - D30] (Eterna round: R96, puzzle: Same State NG 1) | 149 | 11.6 | 47.1 |  |  |  |
| CGUUGUUCCUGAGGAUAUCAGUUGUUUGCAUUAUGAGAAGGCAGUACAUGAGGAUCACCCAUGUUGGGAUUUGAUAGAAUGACG [JR_SSNG1_Sub008] (Eterna round: R96, puzzle: Same State NG 1) | 221 | 113 | 226 |  |  |  |
| GUUAUACAUGAGGAUCACCCAUGUCAAUGUAGUCGAGGAUAUGGGCAGCUAUGAGGCGUACUAGAAGGCGAUGAGU [JL-ss1-3.14 ViennaUCT mod] (puzzle: Same State 1) |  |  |  |  | 122 |  |
| UUAUUAUACGUAGGAUAUUGAUGAUUGAUAGUACAAGAAGGACGAACAUGAGGAUCACCCAUGUAUAUUAAAAUGAGUUUGAAU [JR_SSNG1_Sub077] (Eterna round: R96, puzzle: Same State NG 1) | 72.8 | 52.8 | 55.1 |  |  |  |
| GUACAAAUCAUAGGAUAUGGGCGGGAAUGCCGUCCAGAAGGAUGAACAUGAGGAUCACCCAUGUCCGGCCGCAAAUACGCGGCC [Xexeti] (Eterna round: R96, puzzle: Same State NG 1) | 62.6 | 140 | 209 |  |  |  |
| UGUCCAGCCUGAGCUGGACAAAAGCAUGUACAUGAGGAUCACCCAUGUUCAUGUACAAGCUUUUUGCUCGUCUUAAU [salish99_208a_r3_031] (puzzle: Sensor for hsa-mir-208a) |  |  |  | 497 | 14.1 | 445 |
| CUGUACCAUGGAGGAUAUGGGCUGAGACCAGGACAACCCUGGUCAACAUGAGGAUCACCCAUGUCCCAGAAGGCCACGGUGCUA [Anraores] (Eterna round: R96, puzzle: Same State NG 2) | 16 | 103 | 132 |  |  |  |
| GCGAAGAGGUAAGGAUAUUCAUGGCGUAGACAUGAGGAUCACCCAUGUAGGAGACGAAUUAGAAGGGAGAAGGUACCAGGACGC [AK SSNG2-V2-17] (Eterna round: R96, puzzle: Same State NG 2) | 60.9 | 101 | 187 |  |  |  |

| Sequence | apparent KD of MS2 coat protein (input ligand: FMN 200 uM) [nM] | apparent KD of MS2 coat protein [1] [nM] | apparent KD of MS2 coat protein (input ligand: none) [nM] | apparent KD of MS2 coat protein [2] [nM] | apparent KD of MS2 coat protein [3] [nM] | apparent KD of MS2 coat protein [4] [nM] |
| --- | --- | --- | --- | --- | --- | --- |
| AAACAGCCCAACGGAGGGCCACAUGAGGAUCACCCAUGUACAUAGGAUAUCACGCCAACGAGGCGUGAGAAGGGUGAUUAAAAC [Inesteen] (Eterna round: R96, puzzle: Same State NG 3) | 18 | 51.2 | 53.9 |  |  |  |
| AGUCCACGCUGACGUGGACAAAAGCAUGUACAUGAGGAUCACCCAUGUCAUGUACAAGCUUUUUGCUCGUCUUAAAA [Mat - hsa-mir-208a - Mod of JL - D17] (puzzle: Sensor for hsa-mir-208a) |  |  |  | 543 | 14.7 | 1680 |
| GUGGUUCUCGUAGGAUAUGUAGGAUAUCCCUACAUGAGGAUCACCCAUGUUCGCAUGGGAGAAGGACAGAAGGACGAUCGCUAA [pwkr ssNG2 2FMN + 1F5.16] (Eterna round: R96, puzzle: Same State NG 2) | 20.9 | 11.1 | 53.5 |  |  |  |
| CCAUAGUACAAUUUAGAUCUACAUGAGGAUCACCCAUGUACUGAGGAUAUCAGCUCGAUUAGAGCUGAGAAGGCAGAAGUACUU [SSNG3/6-A2] (Eterna round: R96, puzzle: Same State NG 3) | 39.3 | 64.6 | 81.1 |  |  |  |
| CGUAGGUAGCUGGAGGAUAUUCGAGUGGUAACAUGAGGAUCACCCAUGUGGAGUUAUUUACAUGAGGAGAAGGCUAGCUGCCUGC [JL-ss2-3.16 JL mod] (puzzle: Same State 2) |  |  |  | 14.3 | 107 | 136 |
| GAGGGACAGACCAACAUGAGGAUCACCCAUGUCCUCGCAGGUCAGGAUAUCCGGAGGUAGACGAAGGAGAAGGGACGGUGAACC [AK SSNG3-V2-38] (Eterna round: R96, puzzle: Same State NG 3) | 893 | 251 | 631 |  |  |  |
| GUCAACACAAUAGGAUAUUAGACCAUGGAGCCGUACAUGAGGAUCACCCAUGUCUUAGGUUGAUCUAAGAAGGAUUCGUGACGU [Eternabot solution 47] (Eterna round: R96, puzzle: Same State NG 2) | 53.4 | 59.1 | 86 |  |  |  |
| UGUUGUAUUACAGGAUAUCUAGUAUUUUUAGUUAGAGAAGGGUAUUCACAUGAGGAUCACCCAUGUAUAUACGAGGAAGUUGUG [JMF's solution 49] (Eterna round: R96, puzzle: Same State NG 1) | 43.7 | 36.9 | 45.7 |  |  |  |
| GCCGCAAGGGCAGGAUAUGGGUCCAGAACGCAAAUGCGCUCUGGUACAUGAGGAUCACCCAUGUCCCAGAAGGGCCCAAGCGGC [Isusara] (Eterna round: R96, puzzle: Same State NG 2) | 16.5 | 96.5 | 106 |  |  |  |
| AGGAAGGAGACUGAGGAUAUCGUUGAGAGGACAUGAGGAUCACCCAUGUGUAUAGGAUUGGAGAACGAGAAGGCAGAGGAGUGGA [JR_SS2_Sub046] (puzzle: Same State 2) |  |  |  | 50 | 48.5 | 72.4 |
| CGCCAGAGAACAGGAUAUGGGCCGCAGCCUAUGGGCCGCGAACUCACAUGAGGAUCACCCAUGUCCCAGAAGGGUUCCUGGCUG [Tiusonon] (Eterna round: R96, puzzle: Same State NG 2) | 154 | 596 | 2070 |  |  |  |
| GGAGCCGGUACUGAGGAUAUUCAUAUUAAAACAUGAGGAUCACCCAUGUAGGCCAGAAGGCCUUGGGAGAAGGCGGACCAGCUCG [Atgexeedri - 1] (puzzle: Same State 2) |  |  |  | 18.8 | 283 | 414 |
| UCUUGGUUUUUGCUCGUUUUUUGUGUUGAACAUGAGGAUCACCCAUGUAUUAUACGAUCCGGUUUAAUAAUAAUCCG [JMF 80] (puzzle: Sensor for hsa-mir-208a) |  |  |  | 23.7 | 16.1 | 27.2 |
| GCUGCAAGGGCAGGAUAUGGGUCCAAAGCGCAAGUGCGCUUUGGUACAUGAGGAUCACCCAUGUCCCAGAAGGGCCCAAGCGGC [Quzaceza] (Eterna round: R96, puzzle: Same State NG 2) | 15.6 | 83.1 | 140 |  |  |  |
| ACAUGAGAGUUAGGAUAUCUUGUACCUACAUGUGACAUGAGGAUCACCCAUGUGGUAAGUAUGAGGGAGAAGGAACAGAUAUGU [Equivalence 43 - Jieux - Same State NG 2] (Eterna round: R96, puzzle: Same State NG 2) |  | 27.3 |  |  |  |  |
